Source: patent US7943574B2, “Cell-permeable peptide inhibitors of the JNK signal transduction pathway” (Xigen SA, priority 2002, dated 2011)
“Also recorded” adds a separate entry of the source. Residues, ends and D or L forms follow the SMILES beside them.

Legend:
[1] = molecular target: T1, SH3 domain of IB1 (MKK7 binding) (Homo sapiens, UniProt Q9UQF2); experiment: Pull-down of 35S-labelled MKK7 on GST-SH3 domain of IB1; conditions: GST-SH3 domain of IB1, 35S-labelled MKK7 (FIG. 2)
T1 construct: the SH3 domains of IB1 and IB2 were subcloned using PCR into the pGEX-4T1 vector in frame with the GST; GST (N); made in house; host or cells: E. coli
T1 sequence (Q9UQF2 488-549 limits assumed): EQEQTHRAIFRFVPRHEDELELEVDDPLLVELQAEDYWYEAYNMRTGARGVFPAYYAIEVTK
Protocol: (§1) Effects of the αSH3 peptide on JNK biological activities were then studied. […] In the pull-down experiments, the SH3 domains of IB1 and IB2 were subcloned using PCR into the pGEX-4T1 vector in frame with the GST (Pharmacia). The recombinant proteins were produced in E. coli. Purification was performed in native conditions using a glutathione-agarose column (Pharmacia). ^35S-labelled MKK7 was then used in classical pull-down experiments.

[2] = molecular target: T2, SH3 domain of IB2 (MKK7 binding) (Homo sapiens, UniProt Q13387); experiment: Pull-down of 35S-labelled MKK7 on GST-SH3 domain of IB2; conditions: GST-SH3 domain of IB2, 35S-labelled MKK7 (FIG. 2)
T2 construct: the SH3 domains of IB1 and IB2 were subcloned using PCR into the pGEX-4T1 vector in frame with the GST; GST (N); made in house; host or cells: E. coli
T2 sequence (Q13387 604-665 limits assumed): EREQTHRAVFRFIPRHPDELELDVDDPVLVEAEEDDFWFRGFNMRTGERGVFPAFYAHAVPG
Protocol: as §1

[3] = tested on: developing rat cortical neurons; experiment: Incubation of developing rat cortical neurons with peptide (toxicity, neuron number); conditions: 1 μM peptide, versus control developing rat cortical neurons (FIG. 4)

Row | Compound | blocking of the binding of MKK7 to IB1 [1] | blocking of the binding of MKK7 to IB2 [2] | toxicity on developing neurons (residual necrotic bodies) [3]
1 | αSH3: consensus SH3 binding peptide, 12 aa, SVSVGMPPSP RP (SVSVGMPPSPRP) | efficiently blocks | efficiently blocks | –
2 | CSCC[C@H](NC(=O)CNC(=O)[C@@H](NC(=O)[C@H](CO)NC(=O)[C@@H](NC(=O)[C@H](CO)NC(=O)[C@H](CCCNC(=N)N)NC(=O)[C@H](CCCNC(=N)N)NC(=O)[C@H](CCCNC(=N)N)NC(=O)[C@H](CCC(N)=O)NC(=O)[C@H](CCCNC(=N)N)NC(=O)[C@H](CCCNC(=N)N)NC(=O)[C@H](CCCCN)NC(=O)[C@H](CCCCN)NC(=O)[C@@H](N)CCCNC(=N)N)C(C)C)C(C)C)C(=O)N1CCC[C@H]1C(=O)N1CCC[C@H]1C(=O)N[C@@H](CO)C(=O)N1CCC[C@H]1C(=O)N[C@@H](CCCNC(=N)N)C(=O)N1CCC[C@H]1C(=O)O [TAT-αSH3] (H-RKKRRQRRRSVSVGMPPSPRP-OH) | – | – | lacked residual necrotic bodies; also recorded: not toxic
